The values below are quoted from earlier work in publication PMC9346034.

One series deals with DnaK (Escherichia coli) (UniProt P0A6Y8).
The target of another series is Hsp70 (Homo sapiens) (UniProt P0DMV8).
Hsp70 (Homo sapiens), sequence (P0DMV8 2-641): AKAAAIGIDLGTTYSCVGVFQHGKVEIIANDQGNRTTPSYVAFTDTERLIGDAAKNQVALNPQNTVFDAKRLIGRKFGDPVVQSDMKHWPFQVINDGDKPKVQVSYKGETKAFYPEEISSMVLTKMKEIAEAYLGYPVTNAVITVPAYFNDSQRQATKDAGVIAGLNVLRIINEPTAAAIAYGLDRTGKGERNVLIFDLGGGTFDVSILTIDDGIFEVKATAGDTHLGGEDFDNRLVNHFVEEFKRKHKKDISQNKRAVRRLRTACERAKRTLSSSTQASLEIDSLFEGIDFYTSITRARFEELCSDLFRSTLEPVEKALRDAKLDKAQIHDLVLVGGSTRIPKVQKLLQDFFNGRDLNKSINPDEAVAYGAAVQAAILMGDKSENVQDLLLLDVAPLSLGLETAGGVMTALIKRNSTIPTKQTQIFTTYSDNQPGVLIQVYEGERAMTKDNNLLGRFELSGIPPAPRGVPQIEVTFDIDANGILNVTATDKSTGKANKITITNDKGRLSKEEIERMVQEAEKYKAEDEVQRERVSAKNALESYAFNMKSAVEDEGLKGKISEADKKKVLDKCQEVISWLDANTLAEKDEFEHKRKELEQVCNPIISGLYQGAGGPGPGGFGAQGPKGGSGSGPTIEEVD

Bag3-ΔBag ΔBag, sequence (O95817 2-420, stated change not applied): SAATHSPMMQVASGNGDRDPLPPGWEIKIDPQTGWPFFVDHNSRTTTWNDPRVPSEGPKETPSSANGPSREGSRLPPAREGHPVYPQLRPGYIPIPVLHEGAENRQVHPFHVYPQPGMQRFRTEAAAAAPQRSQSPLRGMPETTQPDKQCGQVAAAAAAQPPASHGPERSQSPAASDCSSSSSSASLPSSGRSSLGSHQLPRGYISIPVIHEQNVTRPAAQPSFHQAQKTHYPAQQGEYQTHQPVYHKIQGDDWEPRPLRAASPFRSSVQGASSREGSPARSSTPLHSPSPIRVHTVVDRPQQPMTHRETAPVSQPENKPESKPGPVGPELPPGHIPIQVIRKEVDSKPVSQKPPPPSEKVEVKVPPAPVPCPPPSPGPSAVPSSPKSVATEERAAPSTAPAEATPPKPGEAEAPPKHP
Bag3-ΔBag ΔBag, sequence (O95817 499-575, stated change not applied): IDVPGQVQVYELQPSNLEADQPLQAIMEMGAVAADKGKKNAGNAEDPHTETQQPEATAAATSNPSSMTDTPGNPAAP
DnaJ, sequence (P08622 2-376): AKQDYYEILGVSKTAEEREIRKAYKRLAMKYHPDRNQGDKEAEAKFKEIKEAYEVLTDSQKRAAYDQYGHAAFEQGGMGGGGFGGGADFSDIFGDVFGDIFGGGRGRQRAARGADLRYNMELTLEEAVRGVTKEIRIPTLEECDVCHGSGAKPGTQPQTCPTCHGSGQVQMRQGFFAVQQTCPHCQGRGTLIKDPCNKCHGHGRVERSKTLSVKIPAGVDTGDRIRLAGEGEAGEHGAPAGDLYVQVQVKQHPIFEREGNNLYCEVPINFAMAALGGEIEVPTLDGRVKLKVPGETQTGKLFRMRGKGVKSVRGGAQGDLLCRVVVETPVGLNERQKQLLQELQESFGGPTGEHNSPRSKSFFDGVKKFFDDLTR
DnaK (Escherichia coli), sequence (P0A6Y8 2-638): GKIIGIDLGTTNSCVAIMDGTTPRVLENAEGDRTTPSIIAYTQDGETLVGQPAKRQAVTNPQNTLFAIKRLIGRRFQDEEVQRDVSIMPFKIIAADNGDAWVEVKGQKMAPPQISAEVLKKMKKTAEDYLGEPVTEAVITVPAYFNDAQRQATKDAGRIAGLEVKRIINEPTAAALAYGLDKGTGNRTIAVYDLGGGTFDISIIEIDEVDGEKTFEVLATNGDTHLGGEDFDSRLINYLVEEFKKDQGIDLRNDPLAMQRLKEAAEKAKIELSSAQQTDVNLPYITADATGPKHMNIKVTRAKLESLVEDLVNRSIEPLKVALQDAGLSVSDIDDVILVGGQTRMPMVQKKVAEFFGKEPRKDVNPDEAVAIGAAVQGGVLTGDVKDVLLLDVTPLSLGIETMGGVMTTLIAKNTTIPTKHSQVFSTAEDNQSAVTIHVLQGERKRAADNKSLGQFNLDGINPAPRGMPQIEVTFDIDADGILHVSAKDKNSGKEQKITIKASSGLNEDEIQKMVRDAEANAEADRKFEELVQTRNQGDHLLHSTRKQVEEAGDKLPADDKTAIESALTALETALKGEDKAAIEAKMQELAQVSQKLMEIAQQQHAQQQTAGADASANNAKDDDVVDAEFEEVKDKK

The term Kd denotes the equilibrium constant for the complex coming apart. Consider DnaJ (from UniProt P08622), for which the Kd in the series with DnaK (Escherichia coli) is 3.6 µM. As to Bag3-ΔBag ΔBag (from UniProt O95817), the Kd with Hsp70 (Homo sapiens) was 10 µM.
